Test results published in paper PMC4900677.

Tested on: T1, IFI16 (Homo sapiens), Q16666-2
T1 sequence: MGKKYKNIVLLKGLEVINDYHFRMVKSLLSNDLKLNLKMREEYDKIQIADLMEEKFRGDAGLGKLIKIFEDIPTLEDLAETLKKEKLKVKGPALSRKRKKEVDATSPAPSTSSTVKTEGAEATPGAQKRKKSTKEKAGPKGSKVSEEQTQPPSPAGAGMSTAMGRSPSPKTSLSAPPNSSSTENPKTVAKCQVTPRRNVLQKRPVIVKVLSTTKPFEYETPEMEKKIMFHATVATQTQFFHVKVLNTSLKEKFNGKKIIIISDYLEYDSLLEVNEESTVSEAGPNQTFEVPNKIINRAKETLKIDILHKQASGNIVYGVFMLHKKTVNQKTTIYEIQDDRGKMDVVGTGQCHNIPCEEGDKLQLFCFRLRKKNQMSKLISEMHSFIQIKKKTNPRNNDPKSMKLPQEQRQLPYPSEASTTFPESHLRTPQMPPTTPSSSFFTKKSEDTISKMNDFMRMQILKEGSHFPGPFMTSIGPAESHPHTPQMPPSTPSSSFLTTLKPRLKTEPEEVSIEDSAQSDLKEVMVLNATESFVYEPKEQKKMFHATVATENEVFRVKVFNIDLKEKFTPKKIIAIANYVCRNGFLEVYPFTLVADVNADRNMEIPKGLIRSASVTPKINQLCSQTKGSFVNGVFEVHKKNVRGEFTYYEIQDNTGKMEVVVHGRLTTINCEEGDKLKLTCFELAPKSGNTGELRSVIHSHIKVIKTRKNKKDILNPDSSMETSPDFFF
Experiment: EMSA
Conditions: EMSA: 5 mM Tris-HCl pH 7.0, 1 mM EDTA, 50 mM KCl, 0.01% Triton X-100, 4 C, 15 min; gel 0.33x TBE (native PAGE with 50 mM KCl)

Sequence | binding signal (% bound at protein:DNA 4:1)
TTGGGGCGCTTATGGGGAGGGTGGGGAGGGTGGGGAAGGTGGGGAGGAGACT (double strand) [DS NHEIII] | 50
GGGTTAGGGTTAGGGTTAGGGTTAGGGTTAGGGTTAGGGTTAGGGTTAGGG (double strand) [DS HTEL] | 50
